The values below come from PMC3815026, “Serglycin Is Implicated in the Promotion of Aggressive Phenotype of Breast Cancer Cells” (PLoS ONE, 2013).

The target of one assay is T1, C1q (UniProt P02745 23-245; P02746 28-253; P02747 29-245).
T1 construct: complement C1q subcomponent subunit A; complement C1q subcomponent subunit B; complement C1q subcomponent subunit C; also called complement component C1q; purified C1q; source: bought: Sigma-Aldrich; copies: + +
As to the kind of experiment: ELISA; solid phase binding assay: microtiter plates coated with 5 µg/ml serglycin (as GAG content), blocked with 1% BSA; C1q or MBL added at increasing concentrations in 50 mM Hepes pH 7.4, 150 mM NaCl, 2 mM CaCl2, 1 h at RT; bound protein detected with antibodies; KD from the slope of a Scatchard-type plot. To be noted: both partners purified.

The target of a further assay is T2, mannose-binding lectin (UniProt P11226 21-248).
T2 construct: Neither the species nor the oligomeric state is stated; Human MBL is surmised; also called MBL; source: bought: Statens Serum Institute (Denmark)
T2 sequence (P11226 21-248): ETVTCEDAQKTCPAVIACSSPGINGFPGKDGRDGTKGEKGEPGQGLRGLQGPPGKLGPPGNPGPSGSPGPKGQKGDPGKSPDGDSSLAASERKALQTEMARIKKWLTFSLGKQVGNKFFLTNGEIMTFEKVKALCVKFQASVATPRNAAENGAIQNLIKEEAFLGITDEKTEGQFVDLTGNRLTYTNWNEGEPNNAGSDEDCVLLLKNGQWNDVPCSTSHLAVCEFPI
The description is as above. As to conditions: both partners purified.

T1 sequence (P02745 23-245, chain 1 of 3): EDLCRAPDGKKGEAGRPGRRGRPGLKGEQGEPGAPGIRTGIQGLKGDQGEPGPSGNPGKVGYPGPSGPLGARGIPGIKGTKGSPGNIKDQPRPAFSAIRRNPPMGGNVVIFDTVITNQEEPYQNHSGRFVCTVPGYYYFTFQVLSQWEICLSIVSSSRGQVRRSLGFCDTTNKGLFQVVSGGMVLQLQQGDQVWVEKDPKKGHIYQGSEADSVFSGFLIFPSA
T1 sequence (P02746 28-253, chain 2 of 3): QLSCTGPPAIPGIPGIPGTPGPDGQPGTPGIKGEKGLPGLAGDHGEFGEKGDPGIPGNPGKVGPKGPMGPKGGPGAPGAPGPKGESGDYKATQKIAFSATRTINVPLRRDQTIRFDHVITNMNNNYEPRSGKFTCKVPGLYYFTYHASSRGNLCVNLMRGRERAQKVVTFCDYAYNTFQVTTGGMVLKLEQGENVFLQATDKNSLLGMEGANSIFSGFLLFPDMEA
T1 sequence (P02747 29-245, chain 3 of 3): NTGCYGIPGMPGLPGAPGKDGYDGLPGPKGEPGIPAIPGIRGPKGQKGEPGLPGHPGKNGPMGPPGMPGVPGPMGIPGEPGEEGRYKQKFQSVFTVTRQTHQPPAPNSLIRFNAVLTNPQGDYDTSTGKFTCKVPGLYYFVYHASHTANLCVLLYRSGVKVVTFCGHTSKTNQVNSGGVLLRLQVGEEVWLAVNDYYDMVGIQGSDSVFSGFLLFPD

B1: Serglycin isolated from conditioned medium of MDA-MB-231 breast cancer cells (total glycanated serglycin) (natural protein, human (endogenous in MDA-MB-231), UniProt P10124 28-158, looked up)
chain: YPTRRARYQWVRCNPDSNSANCLEEKGPMFELLPGESNKIPRLRTDLFPKTRIQDLNRIFPLSEDYSGSGFGSGSGSGSGSGSGFLTEMEQDYQLVDESDAFHDNLRSLDRNLPSDSQDLGQHGLEEDFML
modifications: chondroitin sulfate side chains (4-sulfated 87%, 6-sulfated 10%, non-sulfated 3% disaccharides)
notes: serglycin core protein, secreted proteoglycan of ~250-300 kDa, core protein seen at ~28 kDa after chondroitinase ABC; Proteoglycan: GAG content about 94.5% and core protein about 5.5% of the total mass; also called SG; breast cancer-derived serglycin; source: endogenous, secreted by MDA-MB-231 cells; purified from culture medium (DEAE-Sephacel, Sepharose CL-4B)
As to B1, the Kd in the assay with C1q was determined as 20 nM; in the assay with mannose-binding lectin, 48 nM.
